Source: US20120231013A1 (Amgen, published 2012)
Where “and” joins values, the source holds several entries; their conditions need not be identical. Identical values can stand only once.

T1: recombinant human TIMP-3 (human, UniProt P35625 24-211)
T1 sequence (looked up): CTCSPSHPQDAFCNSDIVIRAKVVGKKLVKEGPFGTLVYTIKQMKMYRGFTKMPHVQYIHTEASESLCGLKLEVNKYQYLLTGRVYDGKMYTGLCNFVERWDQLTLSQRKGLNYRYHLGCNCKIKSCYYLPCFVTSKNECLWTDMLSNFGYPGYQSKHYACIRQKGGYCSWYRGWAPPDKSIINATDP

T2: recombinant mouse TIMP-3 (mouse, UniProt P39876 24-211)
T2 construct: also called MuTIMP-3
T2 sequence (looked up): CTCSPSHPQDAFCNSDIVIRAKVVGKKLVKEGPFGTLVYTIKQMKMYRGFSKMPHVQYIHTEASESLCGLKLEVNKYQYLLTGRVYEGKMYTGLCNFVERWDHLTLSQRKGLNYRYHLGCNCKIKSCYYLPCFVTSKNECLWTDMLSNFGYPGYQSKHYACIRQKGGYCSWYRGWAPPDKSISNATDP


Columns and labels:
recombinant human TIMP-3 [1] = target: T1, recombinant human TIMP-3; test: cell-based or functional assay
MMP-13 = MMP-13 (UniProt P45452 20-471, limits assumed); test: cell-based or functional assay
[2] = target: T3, recombinant TIMP-3 (human or mouse; Table 2 does not say which); test: binding ELISA, Assay 2
T3 construct: The methods say 'human or mouse TIMP-3'

recombinant human TIMP-3 [3] = target: T1, recombinant human TIMP-3; test: direct ELISA, coated huTIMP-3
Method: (§1) After incubation, the coating solution is removed and replaced with 250 microL/well of blocking buffer (1% BSA, TBS [pH 7.5], 1 mM CaCl₂) and incubated with shaking for 1 hour at room temperature. The plates are then washed three times with 200 microL/well with wash buffer 1 (TBS [pH 7.5], 1 mM CaCl₂). The LRP-1 peptides are titrated in assay buffer (0.1% BSA, TBS [pH 7.5], 1 mM CaCl₂, 0.02% Tween-20) in a separate polypropylene non-treated round-bottom 96-well plate (BD Falcon™) starting at 1 microM concentration and then diluted serially 4-fold for 8-points, with the last point buffer only. Then 100 microL/well of the diluted LRP-1 peptide titration is added to the TIMP-3 coated plate and allowed to bind for 1.5 hour at room temperature with shaking. After incubation, the plate is washed three times with 200 microL/well of wash buffer 2 (TBS [pH 7.5], 1 mM CaCl₂, 0.02% Tween-20). […] The assay plate is then washed three times with 200 microL/well with wash buffer 2. The plate is developed by adding 100 microL/well of 1:1 mixture of TMB and H₂O₂ (Pierce, Fisher Thermo Scientific, Rockford Il.), the reaction is stopped by adding 100 microL/well 2NH₂SO₄ (VWR), and read on a SpectraMax microplate reader (Molecular Devices, Sunnyvale, Calif.) at OD450 nm using SOFTmax Pro software version 3.1.2. Data is analyzed using GraphPad Prism 4.01 software. Binding of LRP-1 peptides to TIMP-3 is expressed as binding EC50.

recombinant mouse TIMP-3 = target: T2, recombinant mouse TIMP-3; test: direct ELISA, coated muTIMP-3
Method: as §1

[4] = target: T3, recombinant TIMP-3 (human or mouse; …); test: AlphaScreen, biotinylated TIMP-3, Assay 1
Method: (§2) Peptides were also evaluated by AlphaScreen® (Amplified Luminescent Proximity Homogeneous Assay; PerkinElmer, Waltham, Mass.) a very sensitive non-radioactive homogeneous assay technology that allows the screening of a large range of biological interactions and activities, substantially according to the manufacturer's instructions. Briefly, all dilutions are made in AlphaScreen® Buffer: [40 mM HEPES pH 7.5, 100 mM NaCl, 1 mM CaCl2, 0.1% BSA, 0.05% Tween-20]. The LRP-1 peptides are titrated in a separate polypropylene 96-well plate (Falcon) starting at 4 microM concentration and then diluted serially 3-fold for 12-points, with the last point buffer only. First 2 microL/well of protein titration curve is added to white, small volume, 384-well assay plate (Greiner Bio-One, Stonehouse, UK) in duplicate. Next, 2 microL of biotinylated (AFS, in-house conjmicroGation) recombinant human or mouse TIMP-3, is added at 12 nM (or 3 nM final assay concentration) to the assay plate. Lastly, in subdued light 4 microL of a mixture of streptavidin donor beads, anti-mouse IgG acceptor beads (PerkinElmer) both diluted to 20 microG/mL (10 microG/mL final assay concentration) and 2 nM (1 nM final concentration) rat-anti-HA (clone3F10)-HRP (Roche Diagnostics) is added to the plates. Plates containing 8 microL final assay volme are covered with TopSeal A (to prevent evaporation), spun quickly at 1000 rpm, and incubated overnight (covered with foil to prevent light exposure) before reading on Fusion plate reader (PerkinElmer) using AlphaScreen® parameters (excitation 680 nm and emission 520-620 nm). Data is analyzed using GraphPad Prism 4.01 software. Binding to TIMP-3 is reported as total signal (cps).

[5] = target: T3, recombinant TIMP-3 (human or mouse; …); test: AlphaScreen, biotinylated TIMP-3, Assay 2
Method: as §2

recombinant human TIMP-3 [6] = target: T1, recombinant human TIMP-3; test: indirect ELISA, huTIMP-3 captured by anti-TIMP-3 clone 277128
Method: Then 100 microL/well of the diluted LRP-1 peptide titration is added to the TIMP-3 coated plate and allowed to bind for 1.5 hour at room temperature with shaking. After incubation, the plate is washed three times with 200 microL/well of wash buffer 2 (TBS [pH 7.5], 1 mM CaCl₂, 0.02% Tween-20). […] The assay plate is then washed three times with 200 microL/well with wash buffer 2. The plate is developed by adding 100 microL/well of 1:1 mixture of TMB and H₂O₂ (Pierce, Fisher Thermo Scientific, Rockford Il.), the reaction is stopped by adding 100 microL/well 2NH₂SO₄ (VWR), and read on a SpectraMax microplate reader (Molecular Devices, Sunnyvale, Calif.) at OD450 nm using SOFTmax Pro software version 3.1.2. Data is analyzed using GraphPad Prism 4.01 software. Binding of LRP-1 peptides to TIMP-3 is expressed as binding EC50.
After incubation, the plate contents are discarded and 250 microL/well of blocking buffer (1% BSA, TBS [pH 7.5], 1 mM CaCl₂) is added to the plate which is incubated with shaking for 1 hour at room temperature. The plate is then washed three times with 200 microL/well with wash buffer 1 (TBS [pH 7.5], 1 mM CaCl₂) followed by the addition of 100 microL of 20 nM recombinant human TIMP-3. The plate is incubated at room temperature for 1 hour. The LRP-1 peptides are titrated as described previously, and 100 microL/well of the diluted LRP-1 peptide titration is added to the TIMP-3 coated plate and allowed to bind for 1.5 hour at room temperature with shaking. After incubation, the plate is washed and the ELISA performed substantially as described previously for the direct binding ELISA.

Row | Binder | % of the inhibitory activity of TIMP-3 + peptide compared to TIMP-3 alone, 16 nM (recombinant human TIMP-3 [1]) [%] | % of the inhibitory activity of TIMP-3 + peptide compared to TIMP-3 alone, 80 nM (recombinant human TIMP-3 [1]) [%] | % of the inhibitory activity of TIMP-3 + peptide compared to TIMP-3 alone, 400 nM (recombinant human TIMP-3 [1]) [%] | % of the inhibitory activity of TIMP-3 + peptide compared to TIMP-3 alone, 2000 nM (recombinant human TIMP-3 [1]) [%] | Direct Inhibition of MMP13 (% decrease), 1000 nM (MMP-13) [%] | EC50 [2] [nM] | EC50 (recombinant human TIMP-3 [3]) | EC50 (recombinant mouse TIMP-3) | total signal (cps) [4] [cps] | total signal (cps) [5] [cps] | EC50 (recombinant human TIMP-3 [6])
1 | LRP-1 peptide LA16 (peptide) not shown | 105 | 101 | 52 | 89 | 20 | – | – | – | – | – | –
2 | LRP-1 peptide LA5 (peptide) not shown | – | – | – | – | 69 | – | – | – | – | – | –
3 | CGPSSFSCPGTHVCVPERWLCDGDKDCADGADESIAAGCLYNST (Tags implied (Ni-NTA, anti-HA detection), not described) [LRP-1 peptide LA17] | – | 93 | 77 | 77 | 41 | – | 886 nM | – | 2200 | – | –
4 | LRP-1 peptide LA7 (The end 1061 is inferred from the end of LA5-7; Tags implied, not described) not shown | – | – | – | – | – | ~2500 | – | – | 2200 | – | –
5 | LRP-1 peptide LA6 (Tags implied (Ni-NTA, anti-HA detection), not described) not shown | – | – | – | – | 57 | 1210 | 95 nM | 38 nM | 2200 | – | 9 nM
6 | LRP-1 peptide LA3 (peptide) not shown | – | 84 | 80 | 109 | 7 | – | – | – | – | – | –
7 | LRP-1 peptide LA4-5 (peptide) CPSDRFKCENNRCIPNRWLCDGDNDCGNSEDESNATCSARTCPPNQFSCASGRCIPISWTCDLDDDCGDRSDESASCAYPT | – | 101 | – | 104 | 26 | – | – | – | – | – | –
8 | LRP-1 peptide LA11-20 (peptide) not shown | – | – | – | – | 26 | – | – | – | – | – | –

The remaining lines, values ahead:

Row | % of the inhibitory activity of TIMP-3 + peptide compared to TIMP-3 alone, 16 nM (recombinant human TIMP-3 [1]) [%] | % of the inhibitory activity of TIMP-3 + peptide compared to TIMP-3 alone, 80 nM (recombinant human TIMP-3 [1]) [%] | % of the inhibitory activity of TIMP-3 + peptide compared to TIMP-3 alone, 400 nM (recombinant human TIMP-3 [1]) [%] | % of the inhibitory activity of TIMP-3 + peptide compared to TIMP-3 alone, 2000 nM (recombinant human TIMP-3 [1]) [%] | Direct Inhibition of MMP13 (% decrease), 1000 nM (MMP-13) [%] | EC50 [2] [nM] | EC50 (recombinant human TIMP-3 [3]) | EC50 (recombinant mouse TIMP-3) | total signal (cps) [4] [cps] | total signal (cps) [5] [cps] | EC50 (recombinant human TIMP-3 [6]) | Binder
9 | – | – | 92 | 53 | – | ~600 | 187 nM | 140 nM | 2200 | 2000 | 85 nM | LRP-1 peptide LA23-24 (Tags implied (Ni-NTA, anti-HA detection), not described) not shown
10 | 97 | 96 | 100 | 107 | 19 | – | – | – | – | – | – | LRP-1 peptide LA21-23 (peptide) not shown
11 | 100 | 100 | 104 | – | 53 | – | – | – | – | – | – | LRP-1 peptide LA26-28 (peptide) CEPYQFRCKNNRCVPGRWQCDYDNDCGDNSDEESCTPRPCSESEFSCANGRCIAGRWKCDGDHDCADGSDEKDCTPRCDMDQFQCKSGHCIPLRWRCDADADCMDGSDEEACGTGVRT
12 | – | – | – | – | 32 | 300 | – | – | 2200 | – | 972 nM | LRP-1 peptide LA28 (Tags implied (Ni-NTA, anti-HA detection), not described) not shown
13 | 104 | 107 | – | 84 | 46 | – | – | – | – | – | – | CLPSQFKCTNTNRCIPGIFRCNGQDNCGDGEDERDCPEVT [LRP-1 peptide LA23]
14 | – | – | – | – | 0 | – | – | – | – | – | – | CNASSQFLCSSGRCVAEALLCNGQDDCGDSSDERGCHINE [LRP-1 peptide LA20]
15 | 96 | 109 | 112 | 108 | 1 | 300 | 118 nM | 134 nM | 2200 | – | 179 nM | LRP-1 peptide LA26 (Tags implied (Ni-NTA, anti-HA detection), not described) not shown
16 | – | – | – | – | 59 | 426 | 456 nM and 340 nM | 394 nM and 478 nM | 2200 | – | 185 nM and 200 nM | LRP-1 peptide LA22 (Tags implied (Ni-NTA, anti-HA detection), not described) not shown
17 | – | – | – | – | -2 | 1020 | 303 nM | 206 nM | 2200 | – | 313 nM | LRP-1 peptide LA21 (Tags implied (Ni-NTA, anti-HA detection), not described) not shown
18 | – | – | – | – | 47 | – | – | – | – | – | – | LRP-1 peptide LA27 (peptide) not shown
